In paper PMC6884549, “Alkyladenine DNA glycosylase associates with transcription elongation to coordinate DNA repair with gene expression” (Nature Communications, 2019):

B1: FLAG-tagged ELP1, purified recombinant (natural protein, human, UniProt O95163 1-1332, looked up)
chain: MRNLKLFRTLEFRDIQGPGNPQCFSLRTEQGTVLIGSEHGLIEVDPVSREVKNEVSLVAEGFLPEDGSGRIVGVQDLLDQESVCVATASGDVILCSLSTQQLECVGSVASGISVMSWSPDQELVLLATGQQTLIMMTKDFEPILEQQIHQDDFGESKFITVGWGRKETQFHGSEGRQAAFQMQMHESALPWDDHRPQVTWRGDGQFFAVSVVCPETGARKVRVWNREFALQSTSEPVAGLGPALAWKPSGSLIASTQDKPNQQDIVFFEKNGLLHGHFTLPFLKDEVKVNDLLWNADSSVLAVWLEDLQREESSIPKTCVQLWTVGNYHWYLKQSLSFSTCGKSKIVSLMWDPVTPYRLHVLCQGWHYLAYDWHWTTDRSVGDNSSDLSNVAVIDGNRVLVTVFRQTVVPPPMCTYQLLFPHPVNQVTFLAHPQKSNDLAVLDASNQISVYKCGDCPSADPTVKLGAVGGSGFKVCLRTPHLEKRYKIQFENNEDQDVNPLKLGLLTWIEEDVFLAVSHSEFSPRSVIHHLTAASSEMDEEHGQLNVSSSAAVDGVIISLCCNSKTKSVVLQLADGQIFKYLWESPSLAIKPWKNSGGFPVRFPYPCTQTELAMIGEEECVLGLTDRCRFFINDIEVASNITSFAVYDEFLLLTTHSHTCQCFCLRDASFKTLQAGLSSNHVSHGEVLRKVERGSRIVTVVPQDTKLVLQMPRGNLEVVHHRALVLAQIRKWLDKLMFKEAFECMRKLRINLNLIYDHNPKVFLGNVETFIKQIDSVNHINLFFTELKEEDVTKTMYPAPVTSSVYLSRDPDGNKIDLVCDAMRAVMESINPHKYCLSILTSHVKKTTPELEIVLQKVHELQGNAPSDPDAVSAEEALKYLLHLVDVNELYDHSLGTYDFDLVLMVAEKSQKDPKEYLPFLNTLKKMETNYQRFTIDKYLKRYEKAIGHLSKCGPEYFPECLNLIKDKNLYNEALKLYSPSSQQYQDISIAYGEHLMQEHMYEPAGLMFARCGAHEKALSAFLTCGNWKQALCVAAQLNFTKDQLVGLGRTLAGKLVEQRKHIDAAMVLEECAQDYEEAVLLLLEGAAWEEALRLVYKYNRLDIIETNVKPSILEAQKNYMAFLDSQTATFSRHKKRLLVVRELKEQAQQAGLDDEVPHGQESDLFSETSSVVSGSEMSGKYSHSNSRISARSSKNRRKAERKKHSLKEGSPLEDLALLEALSEVVQNTENLKDEVYHILKVLFLFEFDEQGRELQKAFEDTLQLMERSLPEIWTLTYQQNSATPVLGPNSTANSIMASYQQQKTSVPVLDAELFIPPKINRRTQWKLSLLD
notes: ELP1 (IKBKAP), cDNA excised from pCMV6-XL5-ELP1 (OriGene) and inserted into pcDNA3.1(+)-3xFLAG; Seen as a dimer after BS3 cross-linking; Purified in one step from human cells, so other Elongator subunits might be present (my surmise); also called FLAG-ELP1; ELP1 dimer

Experiments:
[1] = target: B1; experiment: co-IP; purified proteins: 1 µg of protein with 1 µg of antibody overnight at 4 °C in 200 µl IP buffer (20 mM HEPES pH 7.9, 140 mM NaCl, 0.01% NP-40), Protein-A sepharose beads, immunoblot; conditions: both partners purified
[2] = target: the molecule itself; experiment: cross-linking; 10 µM of purified proteins in 0.1 M sodium phosphate, 0.15 M NaCl, pH 7.4, 30 min at RT; BS3 at 0, 0.1 and 0.5 mM for 1 h at 4 °C; gel shift read by immunoblot; single proteins with the highest amount of BS3 as controls

Binder	binding result [1]	stoichiometry N [2]
AAG lacking 80 N-terminal amino acids, purified recombinant (domain or fragment, human, UniProt P29372 81-298, looked up, Alkyladenine DNA glycosylase (AAG, MPG), human, lacking the first 80 N-terminal amino acids; also called Δ80 AAG; ∆80AAG) GHLTRLGLEFFDQPAVPLARAFLGQVLVRRLPNGTELRGRIVETEAYLGPEDEAAHSRGGRQTPRNRGMFMKPGTLYVYIIYGMYFCMNISSQGDGACVLLRALEPLEGLETMRQLRSTLRKGTASRVLKDRELCSGPSKLCQALAINKSFDQRDLAQDEAVWLERGPLEPSEPAVVAAARVGVGHAGEWARKPLRFYVRGSPWVSVVDRVAEQDTQA	binds	–
B1	–	2
